Here are results for eight sequences from the Immune Epitope Database (IEDB).

Usually Kd stands for the concentration at which binding is half-saturated.

Assay [1] concerns the target HLA-B*07:02. Description: IEDB peptide-MHC binding, purified MHC/competitive/radioactivity; filed as Kd, often an IC50 or EC50 that approximates it; ≥ and ≤ were set here for values at or beyond the usual limits of such assays.
Another assay concerns the target HLA-B*35:01. The assay is described as above.
The target of assay [2] is HLA-B*51:01. The assay is described as above.
Another assay addresses HLA-B*53:01. Described as above.
A further assay concerns the target HLA-B*54:01. The description is as above.
Another assay concerns the target HLA-A*01:01. Description: IEDB peptide-MHC binding, purified MHC/direct/fluorescence; filed as Kd, often an IC50 or EC50 that approximates it; ≥ and ≤ were set here for values at or beyond the usual limits of such assays. Conditions: source organism: Ebola virus - Gabon (1994-1997).
For another assay, the target named is HLA-A*02:03. The description is as above. To be noted: source organism: Zaire ebolavirus.
The target of the next assay is HLA-A*02:11. The assay is described as above. Conditions: source organism: Zaire ebolavirus.
A further assay concerns the target HLA-A*02:12. The description is as above. Conditions: source organism: Zaire ebolavirus.
A further assay concerns the target HLA-A*02:16. Described as above. Conditions: source organism: Zaire ebolavirus.
In a further assay the target is HLA-A*02:19. The description is as above. Conditions: source organism: Zaire ebolavirus.
For a further assay, the target named is HLA-A*03:01. The assay is described as above. To be noted: source organism: Ebola virus - Gabon (1994-1997).
For another assay, the target named is HLA-A*11:01. Described as above. To be noted: source organism: Ebola virus - Gabon (1994-1997).
The target in a further assay is HLA-A*31:01. The assay is described as above. Conditions: source organism: Ebola virus - Gabon (1994-1997).
Assay [3] has as its target HLA-B*07:02. Described as above. Conditions: source organism: Ebola virus - Gabon (1994-1997).
For the next assay, the target named is HLA-B*15:01. Described as above. To be noted: source organism: Ebola virus - Gabon (1994-1997).
The target of the next assay is HLA-B*18:01. The assay is described as above. Conditions: source organism: Ebola virus - Gabon (1994-1997).
A further assay has as its target HLA-B*27:05. Described as above. Conditions: source organism: Ebola virus - Gabon (1994-1997).
In a further assay the target is HLA-B*39:01. The assay is described as above. Conditions: source organism: Ebola virus - Gabon (1994-1997).
Another assay deals with HLA-B*40:01. Described as above. Conditions: source organism: Ebola virus - Gabon (1994-1997).
The next assay concerns the target HLA-B*44:02. The assay is described as above. To be noted: source organism: Ebola virus - Gabon (1994-1997).
A further assay deals with HLA-B*46:01. Described as above. To be noted: source organism: Ebola virus - Gabon (1994-1997).
Another assay addresses HLA-B*48:01. The assay is described as above. Conditions: source organism: Ebola virus - Gabon (1994-1997).
The target in a further assay is HLA-B*57:01. The description is as above. Conditions: source organism: Ebola virus - Gabon (1994-1997).
A further assay has as its target HLA-B*58:01. The description is as above. Conditions: source organism: Ebola virus - Gabon (1994-1997).
Another assay deals with HLA-A*02:01. As to the kind of experiment: IEDB peptide-MHC binding, purified MHC/competitive/fluorescence; filed as Kd, often an IC50 or EC50 that approximates it; ≥ and ≤ were set here for values at or beyond the usual limits of such assays. To be noted: source organism: Zaire ebolavirus.
A further assay deals with HLA-A*26:01. The assay is described as above. To be noted: source organism: Zaire ebolavirus.
For a further assay, the target named is HLA-A*69:01. The description is as above. Conditions: source organism: Zaire ebolavirus.
In the next assay the target is HLA-B*15:17. The assay is described as above. To be noted: source organism: Zaire ebolavirus.
A further assay concerns the target HLA-B*27:03. Described as above. To be noted: source organism: Zaire ebolavirus.
Assay [4] deals with HLA-B*51:01. The assay is described as above. To be noted: source organism: Zaire ebolavirus.
[5] abbreviates: source organism: Vaccinia virus WR.
Where [6] appears, read: source organism: SARS coronavirus Tor2.
Setting [7] is: source organism: Lymphocytic choriomeningitis virus (strain Armstrong).

As for VPHSVFIASA, the Kd in the assay with HLA-B*07:02 [1] (setting [5]) is 528 nM; with HLA-B*35:01 (setting [5]), 8490 nM; in the assay with HLA-B*51:01 [2] (setting [5]), at least 69600 nM; in the assay with HLA-B*53:01 (setting [5]), at least 69900 nM; in the assay with HLA-B*54:01 (setting [5]) it was 0.286 nM.
Regarding KPYTAGNKV, the Kd with HLA-B*07:02 [1] (setting [5]) is 36.6 nM; with HLA-B*35:01 (setting [5]), at least 77400 nM; with HLA-B*51:01 [2] (setting [5]), 10.3 nM; with HLA-B*53:01 (setting [5]), at least 78200 nM; with HLA-B*54:01 (setting [5]), 29.5 nM.
Consider NPTKYIRWKL, for which the equilibrium dissociation constant (Kd) in the assay with HLA-B*07:02 [1] (setting [5]) is 27 nM; in the assay with HLA-B*35:01 (setting [5]), 15000 nM; with HLA-B*51:01 [2] (setting [5]) it was at least 59400 nM; in the assay with HLA-B*53:01 (setting [5]), 2020 nM; with HLA-B*54:01 (setting [5]), 5880 nM.
Consider SPETQQMII, for which the dissociation constant Kd in the assay with HLA-B*07:02 [1] (setting [5]) amounted to 408 nM; in the assay with HLA-B*35:01 (setting [5]) it was 845 nM; with HLA-B*51:01 [2] (setting [5]), 105 nM; in the assay with HLA-B*53:01 (setting [5]) it was 11.4 nM; in the assay with HLA-B*54:01 (setting [5]), 19500 nM.
On to RPIFEWIEA, for which the Kd amounted to 378 nM with HLA-B*07:02 [1] (setting [6]); 296 nM with HLA-B*35:01 (setting [6]); 416 nM in the assay with HLA-B*51:01 [2] (setting [6]); 234 nM with HLA-B*53:01 (setting [6]); 100 nM in the assay with HLA-B*54:01 (setting [6]).
For YFTFDLTAL, the Kd with HLA-A*01:01, with HLA-A*02:03, with HLA-A*02:11, with HLA-A*02:12, in the assay with HLA-A*02:16 and in the assay with HLA-A*02:19 was at least 20000 nM in each case. Moreover, the Kd with HLA-A*03:01, with HLA-A*11:01, with HLA-A*31:01, with HLA-B*07:02 [3], with HLA-B*15:01 and in the assay with HLA-B*18:01 was at least 20000 nM each time. The Kd with HLA-B*27:05, with HLA-B*39:01, with HLA-B*40:01, with HLA-B*44:02, with HLA-B*46:01 and with HLA-B*48:01 was at least 20000 nM in each case. Moreover, the Kd in the assay with HLA-B*57:01, with HLA-B*58:01, with HLA-A*02:01, with HLA-A*26:01, in the assay with HLA-A*69:01 and with HLA-B*15:17 was at least 20000 nM each time. Also, the Kd with HLA-B*27:03 and with HLA-B*51:01 [4] was at least 20000 nM in each case.
Regarding LPFYETLPEL, the Kd with HLA-B*07:02 [1] (setting [5]) amounted to 79.8 nM; with HLA-B*35:01 (setting [5]), 63.1 nM; in the assay with HLA-B*51:01 [2] (setting [5]) it was 55.1 nM; in the assay with HLA-B*53:01 (setting [5]) it was 57 nM; in the assay with HLA-B*54:01 (setting [5]) it was 29.7 nM.
Regarding MPSEDGAEAL, the dissociation constant Kd in the assay with HLA-B*07:02 [1] (setting [7]) is 1360 nM; with HLA-B*35:01 (setting [7]), 68.1 nM; with HLA-B*51:01 [2] (setting [7]) it was at least 21500 nM; with HLA-B*53:01 (setting [7]) it was 1730 nM; with HLA-B*54:01 (setting [7]), 2850 nM.
